The labels stand for the following.
B1: 563E10E12_hzH6L0_hIgG1 (antibody)
heavy: not shown
light: DIVMTQSPLSLPVTPGEPASISCRSSKSLLHSNGITYLFWYLQKPGQSPQLLIYQMSNLASGVPDRFSGSGSGTDFTLKISRVEAEDVGVYYCAQSLELPLTFGGGTKVEIKRTVAAPSVFIFPPSDEQLKSGTASVVCLLNNFYPREAKVQWKVDNALQSGNSQESVTEQDSKDSTYSLSSTLTLSKADYEKHKVYACEVTHQGLSSPVTKSFNRGEC
notes: Humanized, hIgG1/K
B2: 27B9-1G3_hzH1L2_hIgG1 (antibody, V domains shown)
VH: QVQLVQSGAEVKKPGSSVKVSCKASGGTFSGYNMNWVRQAPGQGLEWMGNIDPYYGGTNYNQKFKGRVTITADKSTSTAYMELSSLRSEDTAVYYCARETWFITTGVIKKGFYFDYWGQGTTVTVSS
VL: EIVLTQSPATLSLSPGERATLACSASSIISSNYLHWYQQKPGQAPRLLIYRTSSLASGIPARFSGSGSGTDYTLTISSLEPEDFAVYYCQQGSSIPRTFGGGTKVEIKR
notes: Humanized, hIgG1/K; hzVH01 + hzVL02
B3: 27B9-1G3_hzH4L2_hIgG1 (antibody, V domains shown)
VH: B2 VH with G27Y, T28S, S30T, R67K, V68A
VL: B2 VL
notes: Humanized, hIgG1/K; hzVH04 + hzVL02
B4: 27B9-1G3_hzH1L3_hIgG1 (antibody, V domains shown)
VH: B2 VH
VL: B2 VL with A44S, I59V, D71S
notes: Humanized, hIgG1/K; hzVH01 + hzVL03
B5: 27B9-1G3_hzH4L3_hIgG1 (antibody, V domains shown)
VH: B2 VH with G27Y, T28S, S30T, R67K, V68A
VL: B2 VL with A44S, I59V, D71S
notes: Humanized, hIgG1/K; hzVH04 + hzVL03
B6: 27B9-1G3_hzH3L2_hIgG1 (antibody, V domains shown)
VH: B2 VH with R67K, V68A
VL: B2 VL
notes: Humanized, hIgG1/K; hzVH03 + hzVL02
B7: 27B9-1G3_hzH2L2_hIgG1 (antibody, V domains shown)
VH: B2 VH with G27Y, T28S, S30T
VL: B2 VL
notes: Humanized, hIgG1/K; hzVH02 + hzVL02
B8: 27B9-1G3_hzH1L1_hIgG1 (antibody, V domains shown)
VH: B2 VH
VL: B2 VL with A22S, Y72F
notes: Humanized, hIgG1/K; hzVH01 + hzVL01
B9: 27B9-1G3_hzH3L3_hIgG1 (antibody, V domains shown)
VH: B2 VH with R67K, V68A
VL: B2 VL with A44S, I59V, D71S
notes: Humanized, hIgG1/K; hzVH03 + hzVL03
B10: 27B9-1G3_hzH2L3_hIgG1 (antibody, V domains shown)
VH: B2 VH with G27Y, T28S, S30T
VL: B2 VL with A44S, I59V, D71S
notes: Humanized, hIgG1/K; hzVH02 + hzVL03
B11: 27B9-1G3_hzH2L1_hIgG1 (antibody, V domains shown)
VH: B2 VH with G27Y, T28S, S30T
VL: B2 VL with A22S, Y72F
notes: Humanized, hIgG1/K; hzVH02 + hzVL01
B12: 27B9-1G3_hzH4L1_hIgG1 (antibody, V domains shown)
VH: B2 VH with G27Y, T28S, S30T, R67K, V68A
VL: B2 VL with A22S, Y72F
notes: Humanized, hIgG1/K; hzVH04 + hzVL01
B13: 27B9-1G3_hzH3L1_hIgG1 (antibody, V domains shown)
VH: B2 VH with R67K, V68A
VL: B2 VL with A22S, Y72F
notes: Humanized, hIgG1/K; hzVH03 + hzVL01

13 molecules from EP4624492A1 (Shanghai Hongcheng Biopharmaceutical Co., Ltd., dated 2025) can be followed below.

Residue numbers refer to the chain shown, from its start.

For the first experiment, the target named is T1, human CCR8 (human, UniProt P51685 1-355). Kind of experiment: cell-based or functional assay.
T1 sequence (P51685 whole entry): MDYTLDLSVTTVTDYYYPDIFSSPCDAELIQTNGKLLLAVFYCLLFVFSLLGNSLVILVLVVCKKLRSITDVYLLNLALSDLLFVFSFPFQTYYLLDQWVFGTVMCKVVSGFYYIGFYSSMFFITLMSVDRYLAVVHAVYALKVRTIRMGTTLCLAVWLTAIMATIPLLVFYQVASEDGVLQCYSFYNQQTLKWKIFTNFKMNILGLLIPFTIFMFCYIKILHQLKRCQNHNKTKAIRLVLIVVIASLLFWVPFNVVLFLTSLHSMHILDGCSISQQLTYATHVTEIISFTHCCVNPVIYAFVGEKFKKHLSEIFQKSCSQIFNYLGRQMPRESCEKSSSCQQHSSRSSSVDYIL
B1: the “IC50 of blockade of CCL1-induced β-arrestin recruitment” value came out at 1840 ng/mL.

The target in the next experiment is T1, human CCR8. Kind of experiment: flow cytometry on 293F-hCCR8 cells. A general note: A flow cytometer gives signals particle by particle.
B2: the EC50 (as a rule, the midpoint of the concentration-response curve) stood at 0.237 µg/mL.
As to B3, a half-maximal response (EC50) required 0.196 µg/mL.
On the same count and under the same terms, the value for B4 was 0.175 µg/mL.
Take B5: a half-maximal response (EC50) required 0.22 µg/mL.
B6 came in with an EC50 of 0.2 µg/mL.
Consider B7, for which it took 0.19 µg/mL to reach a half-maximal effect (EC50).
Still for that read-out and setting: the result for B8 reads 0.188 µg/mL; that for B9, 0.198 µg/mL.
On the same count and under the same terms, the value for B10 was 0.212 µg/mL.
Consider B11, for which the concentration for a half-maximal effect (EC50) worked out at 0.246 µg/mL.
As for B12, the 50% effective concentration (EC50) came out at 0.178 µg/mL.
B13 had a half-maximal effective concentration (EC50) of 0.175 µg/mL.
The same measure, in the same setting: the value for B1 was 0.0569 µg/mL.

The target of another experiment is T1, human CCR8. Kind of experiment: flow cytometry, competition with 10 nM AF647-human CCL1 on 293F-hCCR8 cells.
Consider B2, for which the 50% inhibitory concentration (IC50) (in general, the concentration that inhibits the measured activity by half) worked out at 0.291 µg/mL.
With B3, the 50% inhibitory concentration (IC50) came out at 0.162 µg/mL.
Same read-out and setting: the value for B4 was 0.228 µg/mL; that for B5 was 0.167 µg/mL; that for B6 was 0.15 µg/mL.
For the molecule B7, the 50% inhibitory concentration (IC50) worked out at 0.299 µg/mL.
B8 showed an IC50 of 0.31 µg/mL.
Still for that read-out and setting: the value for B9 was 0.189 µg/mL; that for B10 was 0.192 µg/mL.
For the molecule B11, the concentration for half-maximal inhibition (IC50) worked out at 0.269 µg/mL.
The molecule B12 showed an IC50 of 0.163 µg/mL.
Take B13: the IC50 stood at 0.121 µg/mL.
The same measure, in the same setting: the result for B1 reads 0.0543 µg/mL.
